Test results as given in patent US20210238279A1 (Johns Hopkins, published 2021).

T1: human ZnT8-His (human, UniProt Q8IWU4-2 1-320, limits assumed)
T1 construct: Over-expressed in HEK293 cells, solubilized with DDM and immobilized on Ni-NTA plates (native or unfolded with 2% SDS), or SDS-denatured on immunoblots; also called human ZnT8 with C-terminal poly-histidine tag; not shown: C-terminal poly-histidine tag
T1 sequence (looked up): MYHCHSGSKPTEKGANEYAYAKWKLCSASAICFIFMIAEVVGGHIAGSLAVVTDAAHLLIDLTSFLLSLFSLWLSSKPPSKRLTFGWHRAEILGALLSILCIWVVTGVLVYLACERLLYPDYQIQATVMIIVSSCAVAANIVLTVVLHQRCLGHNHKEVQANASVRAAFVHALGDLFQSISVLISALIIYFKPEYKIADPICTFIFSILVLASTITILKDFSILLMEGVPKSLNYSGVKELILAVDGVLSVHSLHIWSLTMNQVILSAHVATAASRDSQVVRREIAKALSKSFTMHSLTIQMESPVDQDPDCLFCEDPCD

T2: monomeric human ZnT8 CTD-His antigen (aa 275-369) (human, UniProt Q8IWU4 275-369)
T2 construct: range 275-369; Immobilized on Ni-NTA plates through the C-terminal poly-histidine tag; also called CTD-His monomer; monomeric CTD antigen; not shown: C-terminal poly-histidine tag
T2 sequence (looked up): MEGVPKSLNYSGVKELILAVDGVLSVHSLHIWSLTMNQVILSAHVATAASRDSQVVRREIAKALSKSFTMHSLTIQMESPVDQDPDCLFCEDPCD

T3: mouse ZnT8-His (mouse, UniProt Q8BGG0 1-367, limits assumed)
T3 construct: Over-expressed in HEK293 cells, solubilized with DDM and immobilized on Ni-NTA plates, or SDS-denatured on immunoblots; not shown: C-terminal poly-histidine tag
T3 sequence (looked up): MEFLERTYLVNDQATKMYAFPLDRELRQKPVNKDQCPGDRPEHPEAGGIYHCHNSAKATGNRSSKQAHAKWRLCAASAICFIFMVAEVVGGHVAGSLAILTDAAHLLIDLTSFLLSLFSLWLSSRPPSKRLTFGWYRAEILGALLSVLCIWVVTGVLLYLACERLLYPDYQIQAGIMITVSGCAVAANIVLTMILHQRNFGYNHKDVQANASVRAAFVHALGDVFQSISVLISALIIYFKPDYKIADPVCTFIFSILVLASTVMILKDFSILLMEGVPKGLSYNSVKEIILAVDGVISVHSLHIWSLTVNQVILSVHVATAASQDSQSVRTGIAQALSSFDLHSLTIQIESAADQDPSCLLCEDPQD


How the values were obtained:
human ZnT8-His = target: T1, human ZnT8-His; test: ELISA, ZnT8-His on Ni-NTA plate, HRP-conjugated secondary antibody; curve taken as human by paragraph 166
Source text: (§1) FIG. 7A-7D. mAb binding specificities (FIG. 7A) mAb binding to ZnT8-His immobilized to Ni-NTA plate. Bound mAb20 (red) or mAb39 (magenta) was detected by an HRP-conjugated secondary antibody. Solid lines are least-squares fits of binding datapoints to a one-component binding process. Error bars are standard errors (n=8). (FIG. 7B) SDS-denatured mouse ZnT8-His (labeled as M) and human ZnT8-His (labeled as H) on immunoblots were detected by mAb20 or mAb39 as indicated. […] (FIG. 7C) Detection of endogenous human ZnT8 in EndoC-βH cells by mAb20 or […] immunoblotting. An equal amount of EndoC-βH lysate (5 μg total protein) was loaded to each lane. (FIG. 7D) Immunoblotting of HEK lysates with or with over-expression of a ZnT homolog as indicated. An approximately equal amount of total lysate protein (5 μg) was located to each lane, probed by either mAb20, mAb39, or anti-FALG antibody as indicated. FIG. 8. HTRF response to human ZnT8, mouse ZnT8 and human ZnT3.
(§2) Binding specificities. […] Of note, the epitope-masking effect of ZnT8 immobilization weakened the apparent binding affinities of both mAbs as compared to the affinities determined by flow-cytometry, and such a weakening effect was more pronounced for mAb39, probably due to a closer proximity of the mAb39 epitope to the C-terminal His-tag. Next, we compared the immunoreactivities of mAbs to denatured ZnT8.

[1] = target: T2, monomeric human ZnT8 CTD-His antigen …; test: ELISA, monomeric CTD-His on Ni-NTA plate
Source text: Error bars represent standard deviations. (FIG. 1B) ELISA against a monomeric CTD antigen immobilized to Ni-NTA plate via a C-terminal poly-histidine tag. CTDA and NTDA were used a positive and negative control, respectively (Z>0.5).
Materials and Methods Generating hybridoma. Four pairs of male/female homozygous Slc30a8-1- mice were immunized by weekly intraperitoneal injections of a human ZnT8 antigen (the R325 variant) in reconstituted proteoliposomes. All experiments with mice were approved by the Institutional Animal Care and Use Committee of Johns Hopkins University School of Medicine. Serum antibody titering and validation of anti-ZnT8 specificity by CRISPR/Cas9 ZnT8-knockout were described previously (36). Following a final immunization boost, spleens were isolated. Splenocytes were fused with an immortalized myeloma cell line Sp2/0-Ag14 (CRL-1581, ATCC) at a 4:1 splenocytes-to-myeloma ratio by adding 1 ml of 50% PEG1500 (w/v, Roche) to the cell mixture drop-by-drop over 1 min (37). […] Bound antibodies were detected by an HRP-conjugated goat anti-mouse secondary antibody (Invitrogen, cat. #62-6500) with 1:3000 dilutions in assay buffer, followed by ABTS colorimetric reaction (Life Technologies) and signal readout at 415 nm on a plate reader (Molecular Device). […]

mouse ZnT8-His = target: T3, mouse ZnT8-His; test: ELISA, ZnT8-His on Ni-NTA plate, HRP-conjugated secondary antibody; binder taken from the axis label and paragraph 166; curve taken as mouse
Source text: as §1, §2

Binder	EC50 (read off the curve) (human ZnT8-His) [nM]	binding result [1]	EC50 (read off the curve) (mouse ZnT8-His) [nM]
mAb20 (antibody, V domains shown, Mouse hybridoma mAb purified on protein A/G; In some assays it was labelled with Alexa Fluor 488 or terbium cryptate; also called monoclonal antibody mAb20; anti-ZnT8 mAb20) VH: QIQLVQSGPELKKPGETVKISCKASGYIFTNYPMHWVKQAPGKGLKWMGWINTYSGVPTHADDFKGRFAFSLETSANSAFLQINNLKNEDTATYFCTRSRITPTGGYAMDYWGQGTSVTVSS VL: DVVMTQTPLSLPVSLGDQASISCRSSQSLVHSNGNTYLHWYLQKPGQSPNLLISKVSNRFSGVPERFSGSGSGTDFTLKISRVEAEDLGVYFCSQNTHVPWTFGGGTKLEIKR	~3	–	–
mAb39 (antibody, V domains shown, Mouse hybridoma mAb purified on protein A/G; In some assays it was labelled with Alexa Fluor 555 or d2; also called monoclonal antibody mAb39; anti-ZnT8 mAb39) VH: QVQLQQPGAELVKPGASVKLSCKASGYSFTTYWMHWVKQRPGQGLEWVGDINPRNGRTNYNEKSKSKATLTVDISSSTVYMQVSSLTSEDSAVYYCAIWSGAMDYWGPGTSVTVSS VL: DVVMTQTPLSLPVSLGDQPSISCKSSQSLVHNNGNTYLHWYLQKPGQSPKLLIYKVSNRFSGVPDRFSGSGSGTDFTLKISRVEAEDLGVYFCSQTTHVPPTFGGGTKLEIKR	–	no binding	~30
